Substitutions are numbered along the chain they refer to.
B1: AB-009812 (antibody, mouse IgG2a, V domains shown)
VH: QVQLQQWGAGLLKPSETLSLTCAVYGGSFSDYYWSWIRQPPGKGLEWIGEVNHSGSINYNNYNPSLKSRVTISVDPSKNQFSLKLTSVTAADTAVYYCAKPLRPHCTNGVCYSGDAFDIWGQGTMVTVAS
VL: SYVLTQPPSVSVAPGQTARITCGGNNIGSKNVHWYQQKPGQAPVLVVYDDSDRPSGIPEQFSGSNSGNTATLTISRVEAGDEADYYCQVWDSSSDHLVFGGGTKLTVL
B2: AB-009813 (antibody, mouse IgG2a, V domains shown)
VH: B1 VH with S54A
VL: B1 VL
B3: AB-009814 (antibody, mouse IgG2a, V domains shown)
VH: QVQLQQWGAGLLKPSETLSLTCAVYGGSFSDYYWSWIRQPPGKGLEWIGEVNHRGSINYNPSLKSRVTISVDPSKNQFSLKLTSVTAADTAVYYCAKPLRPHCTNGVCYSGDAFDIWGQGTMVTVAS
VL: B1 VL
B4: AB-009816 (antibody, mouse IgG2a, V domains shown)
VH: B1 VH with S54R, P76A
VL: B1 VL
B5: AB-009815 (antibody, mouse IgG2a, V domains shown)
VH: B1 VH with S54R, P76T
VL: B1 VL
B6: AB-009808 (antibody, mouse IgG2a, V domains shown)
VH: B3 VH with V51I, R54S, I57T, L99F, A126S
VL: B1 VL
B7: AB-009807 (antibody, mouse IgG2a, V domains shown)
VH: B3 VH with S30N, R54S, I57T, N58S, P73T, T83S, L99F, A126S
VL: B1 VL with V44A
B8: AB-009805 (antibody, V domains shown)
VH: QVQLQQWGAGLLKPSETLSLTCAVYGGSLSDYHWSWIRQPPGKGLEWIGEINHSGSTNYNPSLKSRVTISVDTSKNQFSLKLSSVSAADTAVYYCAKPFRPHCTNGVCHSGDAFDIWGQGTMATVSS
VL: B1 VL
B9: AB-009812 (antibody, mouse IgG2a, V domains shown)
VH: B1 VH
VL: B1 VL
B10: AB-009813 (antibody, mouse IgG2a, V domains shown)
VH: B1 VH with S54A
VL: B1 VL
B11: AB-009815 (antibody, mouse IgG2a, V domains shown)
VH: B1 VH with S54R, P76T
VL: B1 VL
B12: AB-010363 (antibody, V domains shown)
VH: B1 VH with D31G, V51I, S54R, P76T, T86S
VL: B1 VL with Q60R, L97V
notes: Tested in mIgG2a format
B13: AB-010361 (antibody, mouse IgG2a, V domains shown)
VH: B1 VH with D31G, V51I, S54R, P76T, T86S
VL: B1 VL with L97V
notes: Tested with mouse IgG2a constant regions (mIgG2a format)
B14: AB-008873 (mouse IgG2a format) (antibody, V domains shown)
VH: B1 VH with S54R
VL: SYVLTQPPSVSVAPGQTARITCGGNNIGSKNVHWYQQKPGQAPVLVVYDDSDRPSGIPEQFSGSNSGNTATLTISRVEAGDEADYYCQVWDSSSDHLVFGGGTKLTVLG

biological target: T1, human EphA2 (ephrin receptor A2), on cells (human, UniProt P29317 24-976); experiment: flow cytometry on A549 cells
T1 construct: Used for HEK293 transfectants, A549 and other human tumor cell lines
Description: (§1) Surface binding of the antibodies to in vitro grown cell lines was assessed by flow cytometry. Tumor cells were detached from their culture plate using Versene and counted. Cells were staining in BSA-containing buffer with primary antibody for 30 minutes at 4° C. with shaking. Following, cells were washed and stained with secondary PE-labeled antibody for 30 minutes at 4° C. with shaking. Before analysis on an Intellicyt iQue3 scanner, cells were counterstained with DAPI. MedFI values from live, single cells was expressed as fold over isotype control.

T1 sequence (P29317 24-976 limits assumed): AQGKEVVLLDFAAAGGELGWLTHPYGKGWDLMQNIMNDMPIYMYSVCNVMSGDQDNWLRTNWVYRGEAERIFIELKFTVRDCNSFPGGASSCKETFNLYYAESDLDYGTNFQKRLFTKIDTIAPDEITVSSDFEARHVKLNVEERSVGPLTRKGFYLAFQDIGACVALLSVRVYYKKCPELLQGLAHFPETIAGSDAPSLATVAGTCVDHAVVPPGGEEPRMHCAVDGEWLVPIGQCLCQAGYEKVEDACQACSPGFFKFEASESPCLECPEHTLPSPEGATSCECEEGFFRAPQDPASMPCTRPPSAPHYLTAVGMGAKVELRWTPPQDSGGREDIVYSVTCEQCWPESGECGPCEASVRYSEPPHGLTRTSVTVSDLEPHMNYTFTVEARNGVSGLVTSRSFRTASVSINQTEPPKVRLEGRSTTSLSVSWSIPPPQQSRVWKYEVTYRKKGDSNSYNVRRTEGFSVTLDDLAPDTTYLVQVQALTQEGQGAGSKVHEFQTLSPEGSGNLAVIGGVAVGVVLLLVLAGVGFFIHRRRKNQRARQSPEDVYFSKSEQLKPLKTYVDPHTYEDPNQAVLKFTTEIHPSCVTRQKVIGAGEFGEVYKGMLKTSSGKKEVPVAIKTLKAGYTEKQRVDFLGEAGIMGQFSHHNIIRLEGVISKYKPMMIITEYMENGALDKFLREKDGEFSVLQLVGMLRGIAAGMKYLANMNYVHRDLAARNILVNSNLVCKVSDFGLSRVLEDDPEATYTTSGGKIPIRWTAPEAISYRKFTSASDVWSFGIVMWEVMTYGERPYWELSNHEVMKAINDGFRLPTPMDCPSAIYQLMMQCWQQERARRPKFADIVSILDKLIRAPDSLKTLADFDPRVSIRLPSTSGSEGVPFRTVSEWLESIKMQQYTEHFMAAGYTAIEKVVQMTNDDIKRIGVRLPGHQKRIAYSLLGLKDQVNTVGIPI

Row | Binder | Delta (flow) | EC50 [nM]
1 | B1 | 568000 | 9.6
2 | B2 | 578000 | 6.8
3 | B3 | 407000 | 11.5
4 | B4 | 670000 | 5.5
5 | B5 | 745000 | 5.5

biological target: T1, human EphA2 (ephrin receptor A2), on …; experiment: flow cytometry binding on A549 cells
Description: as §1

Row | Binder | Flow Delta activity (MedFI)
6 | B6 | 29500
7 | B7 | 12700
8 | B8 | 75100

biological target: T2, Human EphA2 (ephrin receptor A2) (human, UniProt P29317 24-976); experiment: IHC/IF score on frozen human tumor tissue, ANC
T2 construct: Endogenous protein in frozen human tumor tissue and tumor adjacent tissue, not a recombinant construct
T2 sequence (P29317 24-976 limits assumed): as above

Row | Binder | IHC score
9 | B9 | 2
10 | B10 | 2
11 | B11 | 2

biological target: T2, Human EphA2 (ephrin receptor A2); experiment: IHC/IF score on frozen human tumor tissue, CRC

Row | Binder | IHC score
12 | B9 | 1
13 | B10 | 1
14 | B11 | 1

biological target: T2, Human EphA2 (ephrin receptor A2); experiment: IHC/IF score on frozen human tumor tissue, ESC

Row | Binder | IHC score
15 | B9 | 2
16 | B10 | 2
17 | B11 | 2

biological target: T2, Human EphA2 (ephrin receptor A2); experiment: IHC/IF score on frozen human tumor tissue, GAC

Row | Binder | IHC score
18 | B9 | 2
19 | B10 | 2
20 | B11 | 2

biological target: T2, Human EphA2 (ephrin receptor A2); experiment: IHC/IF score on frozen human tumor tissue, HNC

Row | Binder | IHC score
21 | B9 | 2
22 | B10 | 2
23 | B11 | 2

biological target: T2, Human EphA2 (ephrin receptor A2); experiment: IHC/IF score on frozen human tumor tissue, OVA

Row | Binder | IHC score
24 | B9 | 2
25 | B10 | 2
26 | B11 | 2

biological target: T2, Human EphA2 (ephrin receptor A2); experiment: IHC/IF score on frozen human tumor tissue, STS

Row | Binder | IHC score
27 | B9 | 2
28 | B10 | 2
29 | B11 | 2

biological target: T2, Human EphA2 (ephrin receptor A2); experiment: IHC/IF score on frozen human tumor tissue, URO

Row | Binder | IHC score
30 | B9 | 1
31 | B10 | 1
32 | B11 | 1

biological target: T2, Human EphA2 (ephrin receptor A2); experiment: IHC/IF score on frozen human tumor tissue, MELA

Row | Binder | IHC score
33 | B9 | 2
34 | B10 | 2
35 | B11 | 2

biological target: T2, Human EphA2 (ephrin receptor A2); experiment: IHC/IF score on frozen human tumor tissue, PANC

Row | Binder | IHC score
36 | B9 | 1
37 | B10 | 1
38 | B11 | 1

biological target: T2, Human EphA2 (ephrin receptor A2); experiment: IHC/IF score on frozen human tumor tissue, PROC

Row | Binder | IHC score
39 | B9 | 1
40 | B10 | 1
41 | B11 | 1

biological target: T2, Human EphA2 (ephrin receptor A2); experiment: IHC/IF score on frozen human tumor tissue, TNBC

Row | Binder | IHC score
42 | B9 | 1
43 | B10 | 1
44 | B11 | 1

biological target: T2, Human EphA2 (ephrin receptor A2); experiment: IHC/IF score on frozen human tumor tissue, ER+ BRC

Row | Binder | IHC score
45 | B9 | 1
46 | B10 | 1
47 | B11 | 1

biological target: T2, Human EphA2 (ephrin receptor A2); experiment: IHC/IF score on frozen human tumor tissue, NSCLC-SQ

Row | Binder | IHC score
48 | B9 | 1
49 | B10 | 1
50 | B11 | 1

biological target: T2, Human EphA2 (ephrin receptor A2); experiment: IHC/IF score on frozen human tumor tissue, Her2+ BRC

Row | Binder | IHC score
51 | B9 | 2
52 | B10 | 1
53 | B11 | 2

biological target: T2, Human EphA2 (ephrin receptor A2); experiment: IHC/IF score on frozen human tumor tissue, NSCLC-Adeno

Row | Binder | IHC score
54 | B9 | 2
55 | B10 | 2
56 | B11 | 2

biological target: T2, Human EphA2 (ephrin receptor A2); experiment: IHC/IF score on frozen human tumor tissue, RCC-papillary

Row | Binder | IHC score
57 | B9 | 1
58 | B10 | 1
59 | B11 | 1

biological target: T2, Human EphA2 (ephrin receptor A2); experiment: IHC/IF score on frozen human tumor tissue, RCC-clear cell

Row | Binder | IHC score
60 | B9 | 1
61 | B10 | 1
62 | B11 | 1

biological target: T2, Human EphA2 (ephrin receptor A2); experiment: IHC/IF score on frozen human tumor tissue, UCEC-papillary

Row | Binder | IHC score
63 | B9 | 2
64 | B10 | 2
65 | B11 | 2

biological target: T2, Human EphA2 (ephrin receptor A2); experiment: IHC/IF score on frozen human tumor tissue, UCEC-clear cell

Row | Binder | IHC score
66 | B9 | 1
67 | B10 | 2
68 | B11 | 2

biological target: T2, Human EphA2 (ephrin receptor A2); experiment: IHC/IF score on frozen human tumor tissue, UCEC-endometriod

Row | Binder | IHC score
69 | B9 | 1
70 | B10 | 1
71 | B11 | 1

biological target: T3, C-terminally His-tagged hEphA2-FN2 (Thr437-Asn534+His tag) (human, UniProt P29317 437-534); experiment: SPR Biacore T200, 25 C, mIgG2a captured by anti-mouse Fc, FN2-His as analyte, steady-state fit, monovalent
T3 construct: SPR analyte; also called FN2 domain of hEphA2
Description: Binding of antibodies to the FN2 domain of hEphA2 was measured using the Biacore® T200 SPR system at 25° C. using HBS-EP+ buffer (0.01 M HEPES pH 7.4, 0.15 M NaCl, 3 mM EDTA, 0.005% v/v Surfactant P20). Antibodies in mIgG2a format were captured at levels between 475-715 RU via an anti-mouse Fc antibody immobilized to a CM5 chip. Binding was assessed using a titration of C-terminally His-tagged hEphA2-FN2 (Thr437-Asn534+His tag) associated for 30 s or 75 s at 30 uL/min. Data was double-reference subtracted using both a surface without captured antibody and from injections of HBS-EP+ buffer. The equilibrium response was measured at 4 seconds before the end of association with a window of 5 seconds and fit using the Biacore T200 Evaluation Software 3.1 with the Steady State Affinity Model.

T3 sequence (P29317 437-534 limits assumed): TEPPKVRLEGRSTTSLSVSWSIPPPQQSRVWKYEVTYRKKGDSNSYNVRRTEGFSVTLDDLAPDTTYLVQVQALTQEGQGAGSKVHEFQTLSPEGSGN

Row | Binder | Kd [nM]
72 | B12 | 1310
73 | B13 | 1110
74 | B14 | 2260

Reference: patent US20250051464A1 (IMMUNOME, published 2025)
